Reference: the nanobody polyreactivity screen of Harvey et al. (2022)

Experiment: yeast display, Sf9 membrane polyspecificity reagent, FACS + sequencing; frameworks hold sequencing errors
In short: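 A nanobody's polyreactivity label depends on the gate it was sorted from. Yeast display cells were stained with 10% biotinylated, detergent-solubilized Sf9 membrane reagent for 1 hour at 4 °C, enriched on streptavidin microbeads and sorted by FACS. The low and high (top ~1%) gates were set on anti-HA fluorescence for expression and streptavidin fluorescence for reagent binding.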

Sequence | polyreactivity (PSR sort gate)
QVQLVDSGGGLDQAGGSLRLSCAASGYTFWLYAMGWYRQAPGKERELVAAISRGGITNYADSVKGRFTISRDNAKNTVYLQMNSLKPEDTAVYYCAAEYRGRGWRYGYDDWGQGTQVTVSS | high polyreactivity
QVQLVESGGGLVQAGGSLRLSCAASGFIFGRYAMGWYRQAPGKETELVAAISVSGGSTYYADSVKGRFTISRDNAKNTVYLQMNSLKPEDTAVYYCNVARWVSVSRSYGGNYWGQGTQVTVSS | high polyreactivity
QVQLVESGGGLVQAGGSLRLSCAASGRTFRSYAMGWYRQAPGKERELVAAISRRGGTTYYADSVKGRFTISRDNAKNTVYLQMNSLKPEDTAVYYCAATSYTYVLSPYRGDYWGQGTQVTVSS | high polyreactivity
QLQLVESGGGLVQAGGSLRLSCAASGSTQGVYAMGSYRQAPGKERELVAAISRSGGRTYYADSVKGRFTISRDNAKNTVYLQMNSLKPEDTAVYYCAADYYLWVYWYDYWGQGTQVTVSS | high polyreactivity
QVQLVESGGGLVQAGGSLRLSCAASGSIFVWYAMGWYRQEPGKERELVATISSRGGTTYYADSVKGRFTISRDNAKNTVYLQMNSLKPEDTAVYYCNAKRRAQYGYRVFRYDYWGQGTQVTVSS | high polyreactivity
QVQLEESGGGLVQAGGSLRLSCAASGYNFVYYAMGWYRQAPGKERELDAAITGRGGSTYYADSVKGRFTISRDNAKNTVYLQMNSLKPEDTAVYYCAKKRIGPVKQFGRDYNYWGQGTQVTVSS | high polyreactivity
QVQLVESGGGLVQAGGSLRLSCAASGFTFSRNTMGWYRPAPGKERELVAAIDSTGGSTYYADSVKGRFTISRDNAKNTVYLQMNSLKPEDTAVYYCATVLPDGRVWYEGYYWGQGTQVTVSS | low polyreactivity
QVQLEESGGGLVQAGGSLRLSCAASGFILSGNTMGWYRPAPGKERELVAGITYTGGSTYYADSVKGRFTISRDNAKNTVYLQMNSLKPEDTAVYYCAVDVAGGEGMDYWGHGTQVTVSS | low polyreactivity
QVQLVESGGRLLQAGGSLRLSCAASGIIFVYYDMGWYRQAPGKERELVAVITESGVSTYYADSVKGRFTISRDNAKKTVYLQMNSLKPEDTAVYYCDTSVDRGLGYWGQGTQVTVSS | low polyreactivity
QVQLVESGEGLVQAGGSLRLSCAASGRTFDRNTMGWYTQAPGKERELVAAISSSGGSTYYADSVKGRFTISRDNAKNTVYLQMNSLKPEDTAVYYCAVRSRQYFRYGYDYWGQGTQVTVSS | high polyreactivity
QVQLVESGGGLVQAGGSLRLSCAASGIIFSFYAMGWYRQAHGKERELVADITLSGGRTYYADSVKGRFTISRDNAKNTVYLQMNSLKPEDTAVYYCNADTYERGDYWGQGTQVTVSS | high polyreactivity
QVQLVESGGGLVQAGGILRLSCAASGSTLRTNAMGWYRQEPGKDRELVAAISTRGSSTYYADSVKGRFTISRDNAKNTVYLQMNSLQPEDTAVYYCNTAWGPRRGVNVAFDYWGQGTHVTVSS | low polyreactivity
QVQLVESGGGLVQAGGSLRLSCAASGLTFQVYAMGWYRQAPGKERELVAGITRAGSTYYADSVKGRFTISRDNAKNTVYLQMNSLKPEDTAVYYCAARQPPPYYYWGQGTQVNVSS | high polyreactivity
QVQIVESGGGLVQAGGSLRLSCAASGFIFWFNAMGWYRQAPGKERELVATISWSDTSTYYAVSVKGRFTISRDNAKNTVYLQMNSLKPEDTAVYYFATDASETSLPEYYWGQGTQETVSS | low polyreactivity
QVQLVESGGGLVQAGGSLRLSCAASGFTFGYYAMGWYRQAPGKERELVAAINWSGVNTNYADSVKGRFTISRDNAKNTVYLQMNSLKPEDTAVYYCAADAGYDGYGYWGQGTQVTVSS | low polyreactivity
QVHLVESGGGLVQAGGSLRLSCAATGSTFTINAMGWYRQAPGKERELVAAINDGDDTYYADSVKGRFTISRDNAKNTVYLQMNSLKPEDTAVYFCAADIIYGYEVYTYTSDYWGQGTQVTVSS | low polyreactivity
QVQLVESGGGLVQAGGSLRLSCAASGNTFGVYAMGWYRQAPGKERELVAAIRYRGGSTYYADSVKGRFTISRDKAKNTVYLQMTSLKPEETAVYYCAAVYYVQYVGRYYYWGQGTQVTVSS | high polyreactivity
QVQLVETGVGLVKAGGSLRLSSAASGYIFYYYAMGWYRQERGKERELVAAISTSDTRTFYADSVKGRFSISRDNAKNTVYLQMNSLKPEDTAVYYCAASLYICGPNYGYEYWGLGTQVTVSS | low polyreactivity
QVQLVESGGGLVQAGGSLRLSCAASGFTFRRYAMGWYRPARGKERELVAAIRQSGGSTYADSVKGRFTISRDNAKNTVYLQMNSLKPEDTAVYYCNAGVRAVNRKYDYWGQGTQVTVSS | high polyreactivity
QVQLVESGGGLVQAGGSLRLSCAASGFIFKSYAMGWYRQAPGQERELVAAISRSGSSTYYADSVKGRFTISRDNAKNTVYLLMNSLKPEDTAVYYCAKKGYRFIHFGYDYWGQGTQVTVSS | high polyreactivity
HVQLVESGGGLVQAGGSLRLSCAASGFIFQSYAMGWYRQAPGKERELVASISASGGSTYYADSVKGRFTISRDNAKNTVYLQMNSLKPEDTAVYYCAAGYWSYWSLRMDYWGQGTQVTVSS | high polyreactivity
QVQLVESGGGLVQAGGSLRLSCAASGSIFPGNAMGWYRQAPGKERELVASINWSGGSTYYADSVKGRFTISRDNANNTVYLQMNSLKPEDTAVYYCNADPGYYDYDYWGQGTQVTVSS | low polyreactivity

Sequence | polyreactivity (PSR sort gate)
QVQLVESCGGLLQAGGSLRLSCAASGRTFTQYAMGCYRQAPGKERELVAAISWSDDITYYADSVKGRCTISRDIAQYTVYLQMNSLKPEDTAVYYCATEGYWGYDYDYWGQGTQVTVSS | high polyreactivity
QVQLVESGGGLVQAGGSLRLSCAASGRTFPYYTMGWYRQAPGKERELVAAITSGGSTYYADSVKGRFTISRDNAKNTVYLQMNSLKPEDTAVYYCNKDAYYWGQGTQVTVSS | low polyreactivity
QVQLVESGGGLVQAGGSLRLSCAASGRTFKRYAMGWYRQAPGKERELVAGISRGGNTNYADSVKGRFTISRDNAKNTVYLQMNSLNPEDTAVYYCNKDYSFEYSLRNRDYWGQGTQVTVSS | low polyreactivity
QVQLVESGGGLVQAGGSHRLSCAASGSTIAGNAMGWYRQAPGKERELVAVITRGGSTNYADSVKGRFTISRDNAKNTVYLQLNSLKPEDTAVYYCARYRFLLDYWGGGYYWGQGTQVTVSS | high polyreactivity
QVQLVESGGGLVQAGGSLRLSCAASGSIFGYYAMGCYRQAPGKERELVAAITNGGSTSYADSVKGRFTISRDNAKNTVDLQMNSLKPEETSVYYCNARFKRLFGRADDYWGQGTQVTVSS | low polyreactivity
QFQLVESGGGLVQAGGSLRLSCAASGSIFSYNAMGWYIQAPGKERELVASITSGGRTYYADSVKGRFTISRDNAKNTVYLQMYSLKPEDTAVYYCAAYQTGLHGFYSWGQGTQVTVSS | high polyreactivity
QVQLVESGGGLVQAGGILRVSCAASGSTFRRYAMGWSRQAPGKERELVAAIRQRGTSTYYADSVKGRFTISRDNAKNTVYLQMNSLKPEDTAVYYCAAGPSLWLFNSWGQGTQVTVSS | high polyreactivity
QVQLVESGGGLVQAGGSLRLSCAASGIIFPFYAMGWYRQAPGKERELVAAITSGDDTYYADSVKGRFTISRDNAKNTVYLQMNSLKPEVTAVYYCNKRLYIAGYWPQLYYIMDYWGQGTQVTVSS | low polyreactivity
QVQLQESGGGLVEAGGSLRLSCAASGTISYAPHMGWYRQAPGKERELVAGITIGGTTNYADSVKGRFTISRDNAKNTVYLQMISLSPGDTALYYCAAHYDQYTPFYYWGQGSQVTVSS | low polyreactivity
QVQLVESGGGLVQAGGSLRLSCAASGRIFKRNAMGWYRQAPGKERELVAAISWRGGSTYYADSVKGRFTISRDNAKNTVYLQMNSLKPEDTAVYYCNVGYGGSSDGGYDYWGQGTQVTVSS | high polyreactivity
QVQLVESGGGLVQAGGSLRLSCAASGRNFVTNAMGWYRQAPGKERELVAAITRGGNTNYADSVKGRFTISRDNAKNTVYLQMNSLKPEDSAVYYCAADTSYYYVYGYFPGYYYWGQGTQVTVSS | low polyreactivity
QVQLVESGGGLVQAGGSLLLSCAASGFILYSYAMGWYRQAPGTEREFVSVISRGGGRTYYADSVKGRFTISRDNAKNTVYLQMNCLKPDDTAVYYCAATPSNVYAYEYWGQGTQVTVSS | low polyreactivity
QVQLVESGGGLVQAGGSLRLSCAASGRTFIYYAMGWYRQAPGKERELVATIRGSSTRTYYADSVKGRFTISRDNAKNTVYLQMNSLKPEDTAVYYCAARGTSRKYYYWGQGTQVTVSS | high polyreactivity
QVQLVESGGGLVQAGGSLRLSCAASGVIFYRYAMGWYRQAPGKERELVAAITRSGGTTYYADSVKGRFTISRDNAKNTVYLQMNSLKPEDTAVYYCAARVTPGRNGGGYWGQGTQVTVSS | high polyreactivity
QVQLVESGGGLVQAGGSLRLSCAASGIIFSYYAMGWYRQAPGKERELVADISSDGSTNYADSVKGRFTISRDNAKNTVYLQMNSLKPEDTAVYYCAAGYVHYGWFELDYWGQGTQVTVSS | low polyreactivity
QVQLVESGGGLVQAGGSLRLSCAAYGRTIFFNAMGWYIQAPGKERELVAAISRGGSRTFYADSVKGRFTISRDNAKNTVYFQMNSLKPEDPAVYYCNAVAQSGRYDYWGQGTQVTVPS | high polyreactivity
QVQLVESGGGLVQAGGSLRLSCAASGSTLYSNAMGWYRQAPGKERELVATIDWSGGRTYYADSVKGRFTISRDNAKNTVYLQMNSLKPEDTAVYYCAARQSRDFRYRGFYYWGQGTQVTVSS | high polyreactivity
QVQLVESGGGLVQAGGSLRLSCAASGNTFGRYAMGWYRQAPGKERELVASIRGSSVRTFYADSVKGRFTISRDNAKNTVYLQMNSLKPEDTAVYYCAAEVYRYYATGYGYWGQGTQVTVSS | high polyreactivity
QVQLVESCGGLVHAGGSLRLSCAASGRIIIFYAMGWYRQAPGKERELVASITSGASTYADSVKGRFTISRDNAKNTVYLQLNSLKPEDTAVYYCAKDYLDATPWFTWPTYSEFDYWGQGTQVTVSS | low polyreactivity
QVQLVESGGGLVQAGGSLRLSCAASGSTFFYYAMGWYRQAPGKERELVAAITSSGGRTYYADSVKGRFTISRDNAKITVYLQMNSLKPEDTAVYYCAARDYRQSRYEYWGQGTQVTVSS | high polyreactivity
QVQLVESGGGLVQAGGSLRLSCAASGSIFDTNAMGWYRQAPGKERELVAAIRWSGGRTYYADSVKGRFTISRDNAKITVYLQMNSLKPEDTAVYYCNKVPRTPIPYKYGYWGQGTQVTVSS | high polyreactivity
